{"source": "patent US20030073629A1", "about": "“Omi and domains thereof that disrupt IAP-caspase interaction” (priority 2001, published 2003)", "molecules": {"B1": {"name": "Omi-S306A: recombinant mature Omi with active site Ser306 mutated to Ala, C-terminal His6 tag (protein)", "chain": "AVPSPPPASPRSQYNFIADVVEKTAPAVVYIEILDRHPFLGREVPISNGSGFVVAADGLIVTNAHVVADRRRVRVRLLSGDTYEAVVTAVDPVADIATLRIQTKEPLPTLPLGRSADVRQGEFVVAMGSPFALQNTITSGIVSSAQRPARDLGLPQTNVEYIQTDAAIDFGNAGGPLVNLDGEVIGVNTMKVTAGISFAIPSDRLREFLHRGEKKNSSSGISGSQRRYIGVMMLTLSPSILAELQLREPSFPDVQHGVLIHKVILGSPAHRAGLRPGDVILAIGEQMVQNAEDVYEAVRTQSQLAVQIRRGRETLTLYVTPEVTEHHHHHH"}, "B2": {"name": "Omi-ΔAVPS: recombinant mature Omi with deletion of the AVPS motif, C-terminal His6 tag (protein)", "chain": "PPPASPRSQYNFIADVVEKTAPAVVYIEILDRHPFLGREVPISNGSGFVVAADGLIVTNAHVVADRRRVRVRLLSGDTYEAVVTAVDPVADIATLRIQTKEPLPTLPLGRSADVRQGEFVVAMGSPFALQNTITSGIVSSAQRPARDLGLPQTNVEYIQTDAAIDFGNSGGPLVNLDGEVIGVNTMKVTAGISFAIPSDRLREFLHRGEKKNSSSGISGSQRRYIGVMMLTLSPSILAELQLREPSFPDVQHGVLIHKVILGSPAHRAGLRPGDVILAIGEQMVQNAEDVYEAVRTQSQLAVQIRRGRETLTLYVTPEVTEHHHHHH"}, "B3": {"name": "Smac: mitochondrial IAP-binding protein; recombinant mature form with C-terminal His6 tag (protein, UniProt Q9NR28 22-239, looked up)", "Diablo IAP-binding …": "LCVPVVANFKKRCFSELIRPWHKTVTIGFGVTLCAVPIAQKSEPHSLSSEALMRRAVSLVTDSTSTFLSQTTYALIEAITEYTKAVYTLTSLYRQYTSLLGKMNSEEEDEVWQVIIGARAEMTSKHQEYLKLETTWMTAVGLSEMAAEAAYQTGADQASITARNHIQLVKLQVEEVHQLSRKAETKLAEAQIEELRQKTQEEGEERAESEQEAYLRED", "modifications": "C-terminal His6 tag"}, "B4": {"name": "AAAS: C-terminal Flag-tagged Omi precursor mutant with the AVPS motif mutated to AAAS (protein, UniProt O43464 1-458, looked up, variant V135A P136A)", "chain": "MAAPRAGRGAGWSLRAWRALGGIRWGRRPRLTPDLRALLTSGTSDPRARVTYGTPSLWARLSVGVTEPRACLTSGTPGPRAQLTAVTPDTRTREASENSGTRSRAWLAVALGAGGAVLLLLWGGGRGPPAVLAAAASPPPASPRSQYNFIADVVEKTAPAVVYIEILDRHPFLGREVPISNGSGFVVAADGLIVTNAHVVADRRRVRVRLLSGDTYEAVVTAVDPVADIATLRIQTKEPLPTLPLGRSADVRQGEFVVAMGSPFALQNTITSGIVSSAQRPARDLGLPQTNVEYIQTDAAIDFGNSGGPLVNLDGEVIGVNTMKVTAGISFAIPSDRLREFLHRGEKKNSSSGISGSQRRYIGVMMLTLSPSILAELQLREPSFPDVQHGVLIHKVILGSPAHRAGLRPGDVILAIGEQMVQNAEDVYEAVRTQSQLAVQIRRGRETLTLYVTPEVTE", "modifications": "full-length C-terminal Flag tag"}, "B5": {"name": "Omi precursor: C-terminally Flag-tagged full-length Omi precursor (SEQ ID NO:1) expressed from a transfected construct (protein, listed as Homo sapiens)", "chain": "B4 chain with A135V, A136P", "modifications": "C-terminal Flag tag"}, "B6": {"name": "active site Omi precursor mutant: S306A Omi precursor with mutant VVAS sequence instead of the AVPS motif (protein, UniProt O43464 1-458, looked up, variant A134V P136A S306A)", "chain": "B4 chain with A134V, A135V, S306A", "modifications": "full-length"}}, "key": {"[1]": {"biological_target": "T1, GST-BIR3 fusion protein (BIR3 domain of human XIAP) (Homo sapiens, UniProt P98170)", "T1 construct": "Omi associates directly with the BIR3 domain of XIAP", "T1 sequence (P98170 238-358 limits assumed)": "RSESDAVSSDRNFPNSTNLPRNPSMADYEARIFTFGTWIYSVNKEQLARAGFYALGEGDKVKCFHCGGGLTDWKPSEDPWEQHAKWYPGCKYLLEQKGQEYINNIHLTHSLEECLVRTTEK", "assay": "Interaction of purified recombinant proteins with GST-BIR3 fusion protein (SDS-PAGE, Coomassie)", "type": "binding", "conditions": "purified C-terminal His6-tagged recombinant protein; wild type GST-BIR3", "text": "(§1) FIGS. 7A and 7B are scanned images of Coomassie stained gels representing SDS-PAGE analysis of purified C-terminal His6-tagged recombinant wild type mature Omi (WT), Omi-ΔAVPS, Omi-S306A, and mature Smac (7A) and recombinant Omi and Smac proteins with GST-BIR1, GST-BIR2, GST-BIR3, or GST-BIR3-E314S fusion proteins (7B).\n(§2) To determine whether a recombinant Omi lacking the first 133 residues (mature Omi) can interact with the GST-BIR3 fusion protein, this protein was expressed with a C-terminal His6 tag in bacteria and purified to apparent homogeneity (see FIG. 7B). […] FIGS. 7A and 7B show scanned images of Coomassie stained gels representing SDS-PAGE analysis of purified C-terminal His6-tagged recombinant wild type mature Omi (WT), Omi-ΔAVPS, Omi-S306A, and mature Smac (FIG. 7A) and recombinant Omi and Smac proteins with GST-BIR1, 2, GST-BIR3 or GST-BIR3-E314S fusion proteins (FIG. 7B)."}, "[2]": {"biological_target": "T2, caspase-9 interaction with XIAP (procaspase-3 activation) (Homo sapiens, UniProt P98170)", "T2 construct": "caspase-9: endogenous in 293T/HEK293 S100 extract", "assay": "Procaspase-3 activation in XIAP-containing S100 extracts stimulated with cytochrome c and dATP", "type": "biochemical", "conditions": "S100 extracts with purified XIAP, cytochrome c plus dATP; 10, 50 or 300 ng protein", "protocol": "FIG. 17 is a scanned image of an autoradiogram, representing SDS-PAGE analysis of ^35S-labeled procaspase-3 following stimulation of 293T S100 extracts (20μg) mixed with purified XIAP (50 ng) with cytochrome c (0.5 μg) plus dATP (1 mM), in the presence of increasing amounts (10, 50, or 300 ng, respectively) of purified mature WT Omi, Omi-ΔAVPS, Omi-S306A, or mature Smac in 10 μl reaction volume. In the fifth lane, S100 extracts were incubated with. 300 ng of WT Omi without XIAP.\nNext, it was determined whether Omi, like Smac, promotes caspase-9 activity in HEK293 S100 extracts in the presence of XIAP. To measure the caspase-9 activity in these extracts, ^35S-labeled procaspase-3 was added to the S100 extracts and stimulated the extracts with cytochrome c and dATP. […] These observations indicate that Omi, like Smac, is able to disrupt the interaction of caspase-9 with XIAP in the S100 extracts to promote procaspase-3 activation."}, "[3]": {"biological_target": "T3, GST-BIR3-E314S mutant (Homo sapiens, UniProt P98170, E314S)", "T3 construct": "Omi associates directly with the BIR3 domain of XIAP", "T3 sequence (P98170 238-358 E314S limits assumed)": "as the sequence (P98170 238-358 limits assumed) above, with E77S counted along it", "assay": "Interaction of purified recombinant proteins with GST-BIR3-E314S mutant", "type": "binding", "conditions": "purified C-terminal His6-tagged recombinant protein", "text": "as §1\nTo confirm that Omi associates directly with the BIR3 domain of XIAP but not with the Smac protein, Smac was depleted from the 293 extracts using a Smac monoclonal antibody. Specifically, 293 cellular extracts were either left untreated (undepleted lane of FIG. 4) or depleted with a Smac antibody (lane depleted of FIG. 4). The undepleted and depleted extracts were incubated with the GST-BIR3 protein and the bound proteins were eluted as above. The eluates were then analyzed by far-western blotting with ^35S-XIAP and by western blotting with the Smac antibody as described above (see FIG. 4, left and right panels, respectively). […] The last lane of each panel in FIG. 4 represents the 293 cellular extracts that were bound to the E314S mutant GST-BIR3 fusion protein. […] The asterisk in FIG. 4 indicates non-specific bands and the arrow indicates the IgG band. […]"}, "[4]": {"system": "GST-BIR1, 2 fusion protein", "sequence (P98170 124-240 limits assumed)": "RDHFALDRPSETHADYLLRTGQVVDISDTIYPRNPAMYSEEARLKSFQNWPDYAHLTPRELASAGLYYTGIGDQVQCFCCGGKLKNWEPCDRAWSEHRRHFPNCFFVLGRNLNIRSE", "assay": "Interaction of purified recombinant proteins with GST-BIR1, 2 fusion protein", "type": "binding, human", "conditions": "purified C-terminal His6-tagged recombinant protein", "text": "as §1, §2"}, "[5]": {"biological_target": "T4, endogenous XIAP (Homo sapiens, UniProt P98170)", "T4 construct": "endogenous in cells; host or cells: 293T cells", "assay": "Co-immunoprecipitation with endogenous XIAP in transfected 293T cells", "type": "cell-based", "conditions": "293T cells transfected with C-terminal Flag-tagged Omi precursors, XIAP western blot", "text": "FIG. 9 is a scanned image of a blot representing western blot analysis using an XIAP monoclonal antibody (upper panel) or Flag antibody (middle panel) of 293T cells transfected with constructs encoding C-terminal Flag-tagged Omi wild type or mutant precursors and immunoprecipitated with Flag antibody. The lower panel is a scanned image of a blot representing total extracts probed with the XIAP antibody. Arrows indicate IgG bands."}, "[6]": {"system": "Hela cells", "assay": "Staurosporine-induced apoptosis of Hela cells transfected with Omi precursor", "type": "cell-based, human", "conditions": "for apoptosis potentiation compared to vector-transfected cells: staurosporine, indicated or higher doses", "protocol": "FIG. 18 is a bar graphic representation of the percentages of GFP-positive apoptotic HeLa cells following treatment with the indicated doses of staurosporine for five hours, 24 hours after transfection. The Hela cells were transfected with an empty vector or a construct encoding a C-terminally Flag-tagged Omi precursor together with pEGFP-N1 plasmid (Clontech) at a 4:1 ratio. The AVPS motif in the […] Omi precursor is mutated to a VVAS sequence (SEQ ID NO:10) to prevent binding to IAPs. The Insert represents the expression of mature Omi wild type and Omi S306A mutant in the transfected cells as determined by immunoblotting with Flag antibody.\nTo determine whether release of Omi can potentiate apoptosis, human Hela cells were transfected with the Omi precursor, and the cells were stimulated with different doses of staurosporine."}}, "note": "Positions count from the first letter of the chain named. Names may count otherwise.", "data": [{"molecule": "B1", "values": [{"measurement": "interaction with GST-BIR3 fusion protein", "setting": "[1]", "result": "did not affect its interaction with GST-BIR3"}, {"measurement": "promotion of procaspase-3 activation", "setting": "[2]", "result": "able to promote procaspase-3 activation in the XIAP-containing S100 extracts almost to the same extent as Smac"}]}, {"molecule": "B2", "values": [{"measurement": "interaction with GST-BIR3 fusion protein", "setting": "[1]", "result": "completely abolished its interaction with the GST-BIR3 fusion protein"}, {"measurement": "promotion of procaspase-3 activation", "setting": "[2]", "result": "abolished its caspase-promoting activity"}]}, {"molecule": "B3", "values": [{"measurement": "interaction with GST-BIR3-E314S mutant", "setting": "[3]", "result": "not with the GST-BIR3-E314S mutant"}, {"measurement": "interaction with GST-BIR3 fusion protein", "setting": "[1]", "result": "able to interact equally with the wild type GST-BIR3 protein"}, {"measurement": "interaction with GST-BIR1, 2 fusion protein", "setting": "[4]", "result": "able to interact with the GST-BIR1, 2 fusion protein"}]}, {"molecule": "B4", "values": [{"measurement": "interaction with endogenous XIAP in vivo", "setting": "[5]", "result": "abolished its interaction with endogenous XIAP"}]}, {"molecule": "B5", "values": [{"measurement": "transfected cells showing signs of apoptosis", "setting": "[6]; 500 nM staurosporine, five hours, 24 hours after transfection, vector transfected cells ~20%", "result": "~43", "unit": "%"}, {"measurement": "apoptosis potentiation compared to vector-transfected cells", "setting": "[6]; five hours", "result": "increased apoptosis was observed"}, {"measurement": "induction of apoptosis", "setting": "[6]; transiently expressed, absence of staurosporine", "result": "did not induce apoptosis"}]}, {"molecule": "B6", "values": [{"measurement": "apoptosis potentiation compared to vector-transfected cells", "setting": "[6]; five hours", "result": "No apoptosis potentiation was observed"}]}]}
